This is an account of results in patent publication US20190127480A1 (Regeneron, published 2019).

B1: H1H5788P (antibody, V domains shown)
VH: EVQLVESGGGLVQPGRSLRLSCAASGFTFDDYTMHWVRQAPGKGLEWVSGISWNSGSIGYADSVKGRFTISRDNAKNSLYLQMNSLRAEDTALFYCAKDQSGYGHYYYGMDVWGQGTTVTVSS
VL: EIVMTQSPATLSVSPGERATLSCRASQSVSSNLAWYQQKPGQAPRLLIYGASTRATDIPARFSGSGSGTEFTLTISSLQSEDFAVYHCQQYNNWPLTFGGGTKVEIK
notes: H1H: human IgG1 Fc; divalent
B2: H1H5752P (antibody, human IgG1, V domains shown)
VH: QVQLVESGGGVVQPGRSLRPSCAASGFSFRDYGMHWVRQAPGKGLEWMAHIWYNGKNKYYADSVKGRFTISRDNSKNTLYLQMNSLRPEDTAVYYCARDGVSARGTPFDYWGQGTLVTVSS
VL: ETTLTQSPAFMSAAPGDKVSISCIASQYIDDDVNWYQQKPGETAIFIIQEASTLVPGISPRFSGSGYGTHFTLTINNIDSEDAAFYFCLQHDNFPYTFGQGTKLEIK
notes: H1H: human IgG1 Fc; divalent
B3: H1H5782P (antibody, human IgG1, V domains shown)
VH: EVQLVESGGGLVQPGRSLRLSCAASGFTFDDYAMHWVRQAPGKGLEWVSGISWNSGSKDYADSVKGRFTISRDNTRNSLFLQMNSLRTEDTALYYCAKDKSGYGSFYYGMDVWGQGTTVTVSS
VL: not shown
notes: H1H: human IgG1 Fc; divalent
B4: H2M3540N (antibody, V domains shown)
VH: QVHLEESGGGVVQPGRSLRLSCSASGFTFSSYAMHWVRQAPGKGLEWVAVIWYDGTNKYYLDSVKGRFTISRDNSKNTLFLQMNSLRAEDTAVYYCARDRGSIITHWGQGTLVTVSS
VL: DIQMTQSPSSLSASIGDRVTITCRASQNISSYLNWYQQKPGKAPKLLIYAASSLQSGVPSRFSGSGSGTDFTLTISSLQPEDFATYYCQQTYSTPPITFGQGTRLEIK
notes: Hybridoma antibody, human variable regions, mouse IgG2 Fc
B5: H2M3563N (antibody, V domains shown)
VH: EVHLVESGGGLVQPGRSLRLSCAASGFTFDDYTMHWVRQAPGKGLEWVSDISWNSGSIGYADSVKGRFTVSRDNAKNSLYLQMNSLRGEDTALYYCAKDMSGYGHYGKYGMDVWGQGTTVTVSS
VL: DIQMTQSPSSLSASVGDRVTITCRASQSIRSYLNWYQQKPGKVPKLLIYAASSLQSGVPSRFSGSGSGTDFTLTINSLQPDDFATYYCQQTYSNPPITFGQGTRLEIK
notes: as for B4
B6: H1M3549N (antibody, V domains shown)
VH: EVQLVESGGGLVQPGRSLRLSCVASGFPFADYTMHWVRQAPGKGLEWVSDISWNSGSIGYADSVKGRFTISRDNAKNSLYLQMNSLRTEDTALYYCAKDMSGYAHYFYYGMDVWGQGTTVTVSS
VL: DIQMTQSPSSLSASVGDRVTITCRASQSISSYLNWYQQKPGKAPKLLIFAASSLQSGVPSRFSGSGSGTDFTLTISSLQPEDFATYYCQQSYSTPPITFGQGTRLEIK
notes: Hybridoma antibody, human variable regions, mouse IgG1 Fc
B7: H1M3542N (antibody, V domains shown)
VH: EVQLVESGGGLVQPGRSLRLSCVASGFPFADYTMHWVRQAPGKGLEWVSDISWNSGSKGYADSVKGRFTISRDNAKNSLYLQMNSLRTEDTAFYYCAKDMSGYAHYFYYGMDVWGQGTTVTVSS
VL: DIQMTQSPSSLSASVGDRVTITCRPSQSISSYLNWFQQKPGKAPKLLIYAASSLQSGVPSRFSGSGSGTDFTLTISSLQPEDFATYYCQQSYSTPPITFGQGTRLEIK
notes: as for B6
B8: H2M3541N (antibody, V domains shown)
VH: EVQLVESGGGLVRPGRSLRLSCAASGFTFDDYTMHWVRQAPGKGLEWVSDISWNSGTIGYADSVKGRFTISRDNAKNSLYLQMNSLRPEDTALYYCAKDMSGYAHYYYYGMDVWGQGTTVTVSS
VL: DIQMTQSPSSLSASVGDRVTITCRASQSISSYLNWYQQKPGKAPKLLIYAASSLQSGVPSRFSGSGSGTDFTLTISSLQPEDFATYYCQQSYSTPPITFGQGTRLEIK
notes: as for B4
B9: H1M3613N (antibody, V domains shown)
VH: EVQLVESGGGLVQPGRSLKLSCTASGFTFADYTMHWVRQGPGKGLEWVSDISWNSGSKGYADSVKGRFTISRDNAKNSLYLQMNSLRTEDTALYYCAKDMSGYAHYYYYALDVWGQGTTVTVSS
VL: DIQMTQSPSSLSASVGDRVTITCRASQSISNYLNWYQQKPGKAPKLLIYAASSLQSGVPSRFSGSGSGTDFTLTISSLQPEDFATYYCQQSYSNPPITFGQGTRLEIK
notes: as for B6
B10: H2M3543N (antibody, V domains shown)
VH: EVQLVESGGGLVQPGRSLRLSCAASGFTFDDYTMHWVRQAPGKGLEWVSDISWNSGSIGYADSVKGRFTVSRDNAKNSLYLQMNSLRGEDTALYYCAKDMSGYAHYGYYGMDVWGQGTTVTVSS
VL: DIQMTQSPSSLSASVGDRVTITCRASQSIRNYLNWYQQKPGKVPKLLIYAASSLQSGVPSRFSGSGSGTDFTLTISSLQPEDFATYYCQQSYSNPPITFGQGTRLEIK
notes: as for B4
B11: H1M3544N (antibody, V domains shown)
VH: EVQLVESGGGLVQPGRSLRLSCAASGFTFDDYTMHWVRQVPGKGLEWVSGISWNSGSLAYADSVKGRFTISRDNAKNSLYLQMNSLHPEDTALYYCVKDGSGYGHYSYYGLDVWGQGTTVTVSS
VL: not shown
notes: as for B6
B12: H2M2779N (antibody, V domains shown)
VH: EVQLVESGGGLVQPGGSLRLSCAATGFTFDDFTMHWVRQAPGKGLEWVSGISWNSGSIGYVDSVKGRFTISRDNAKNSLYLQMNSLRAEDTALYYCAKDNSGYGYYYYGMDVWGQGTTVTVSS
VL: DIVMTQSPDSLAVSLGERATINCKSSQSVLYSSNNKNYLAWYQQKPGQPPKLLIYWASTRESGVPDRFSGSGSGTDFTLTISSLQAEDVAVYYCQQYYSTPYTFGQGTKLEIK
notes: as for B4
B13: H2M2862N (antibody, V domains shown)
VH: QVQLVESGGGVVQPGRSLRLSCAASGFTFRSYGMHWVRQAPGKGLEWVAMIYYDGNNKKYADSVRGRFTISRDNSKNTLYLQMNSLRVEDTAVYFCARGPGYNWLDPWGQGTLVTVSS
VL: EIVMTQSPATLSVSPGERATLSCRASQSVSRNLAWYQQKPGQAPRLLIYGASTRATDIPARFSGSGSGTEFILNISSLQSEDFALYYCQQYSNWPLTFGGGTEVEIK
notes: as for B4
B14: H2M2778N (antibody, V domains shown)
VH: EVQLVESGGGLVQPGRSLRLSCAASGFTFDDYSMHWVRQAPGKGLEWVSGISWNSRSIDYADSVKGRFTISRDNAKNSLYLQMNSLRAEDTALYYCVKDNSGYGRYYYYGMDVWGQGTTVSVSS
VL: KIVMTQSPATLSVSPGERATLSCRASQSVSGNLAWYQQKPGQAPRLLIYGASTRATSIPARFSGSGSGTEFTLTISSLQSEDFAVYFCQHYYNWPLTFGGGTKVEIR
notes: as for B4
B15: H2M2777N (antibody, V domains shown)
VH: QVQLVESGGGVVQPGRSLRLSCIASGFTFRSYGMHWVRQAPGKGLEWVAMIYYDGNNKYYADSVRGRFTISRDNSKNTLYLQMNSLRADDTAVYFCARGPGYNWLDPWGQGTLVTVSS
VL: EIVMTQSPATLSVSPGERATLSCRASQSVSSNLAWYQQKPGQAPRLLIYGASTRATGIPARFSGSGSGTEFTLTISSLQSEDFAVYYCQQYNNRPLTFGGGTKVEIK
notes: as for B4
B16: H2M3548N (antibody, V domains shown)
VH: EVQLVESGGGLVQPGRSLRLSCAASGFKFADYAMHWVRQAPGKGLEWVSEISWNSGSIGYVDSVKGRFTISRDNAKNSLYLQMNSLRAEDTALYYCVKDKSGYGHYYIGMDVWGQGTTVIVSS
VL: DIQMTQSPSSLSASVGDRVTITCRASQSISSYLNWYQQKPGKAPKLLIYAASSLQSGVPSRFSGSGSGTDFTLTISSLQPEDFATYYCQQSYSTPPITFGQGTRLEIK
notes: as for B4
B17: H2M3547N (antibody, V domains shown)
VH: EAQLVESGGGLVQPGRSLRLSCTTSGFTFDDYTMHWVRQAPGKGLEWISDISWNGGTKGYADSVKGRFTISRDNAKNSLYLQMDSLRGEDTALYYCVKDKSGYGHFYFGLDVWGQGTTVTVSS
VL: DIQMTQSPSSLTASVGDRVTFTCRASQSISRHLSWYQQKPGKAPKLLIYAASSLESGVPSRFSGSGSGTDFTLTISSLHPEDFATYYCQQSYSNPPITFGQGTRLEIK
notes: as for B4

T1 sequence (P07766 23-126 limits assumed, stated change not applied, chain 1 of 2): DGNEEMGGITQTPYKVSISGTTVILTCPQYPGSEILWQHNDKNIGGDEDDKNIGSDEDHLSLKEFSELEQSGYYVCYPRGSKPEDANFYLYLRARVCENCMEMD
T1 sequence (P04234 22-105 limits assumed, stated change not applied, chain 2 of 2): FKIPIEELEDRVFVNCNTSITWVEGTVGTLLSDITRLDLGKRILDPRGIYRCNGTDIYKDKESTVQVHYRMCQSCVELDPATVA
T2 sequence (P07766 23-126 limits assumed, stated change not applied, chain 1 of 2): as the sequence (P07766 23-126 limits assumed, stated change not applied, chain 1 of 2) above
T2 sequence (P04234 22-105 limits assumed, stated change not applied, chain 2 of 2): as the sequence (P04234 22-105 limits assumed, stated change not applied, chain 2 of 2) above

The first assay concerns the target T1, Soluble heterodimeric CD3 protein (hCD3-epsilon/hCD3-delta) with either a human Fc tag (hFcΔAdp/hFc) or a … (human, UniProt P07766 23-126; P04234 22-105).
T1 construct: also called hCD3ε/δ; not shown: Fc tag: human (hFcΔAdp/hFc)
Briefly: SPR Biacore 25C antigen-capture. How it is done:
(§1) Measurements were conducted on a T200 Biacore™ instrument.
In the antigen-capture format, heterodimeric CD3 protein was captured using a rabbit anti-mouse Fc or mouse anti-human Fc and the respective antibodies were injected over the captured antigen.
(§2) Kinetic association (kₐ) and dissociation (kd) rate constants were determined by processing and fitting the data to a 1:1 binding model using Scrubber 2.0 curve fitting software. Binding dissociation equilibrium constants (KD) and dissociative half-lives (t₁₁₂) were calculated from the kinetic rate constants as: KD (M)=kd/kₐ; and t_{1/2} (min)=(ln 2/(60*kd). NT=not tested; NB=no binding observed.
(In general: In SPR one partner is held on a chip, and binding of the other changes the refractive index at the surface.)
What is called Kd is a measure of binding affinity in units of concentration. Read a high Kd as weaker binding. A word on the koff: it is the rate constant with which the complex falls apart. As usually defined, the kon is the rate constant with which the complex forms. A low value points to slow association. B1: binding was characterised by a dissociation constant (Kd) of 2.33 nM, the “T½” value amounted to 70 min, the koff worked out at 0.000164 s⁻¹ and the kon was 70600 M⁻¹ s⁻¹.

In a further assay the target is T1, Soluble heterodimeric CD3 protein …. Briefly: SPR Biacore 25C antibody-capture. On the procedure:
as §1
(§3) Soluble heterodimeric CD3 protein (hCD3-epsilon/hCD3-delta; SEQ ID NOs:1652/1653) with either a human Fc tag (hFcΔAdp/hFc; SEQ ID NOs:1683/1684) or a mouse Fc tag (mFcΔAdp/mFc; SEQ ID NOs:1685/1686) was injected over the antibody captured surface and the binding response was recorded. Heterodimeric CD3 protein was purified using the method described in Davis et al. (US2010/0331527).
as §2
Turning to B1, the Kd was 101 nM, the “T½” value turned out to be 40 min, the koff amounted to 0.000291 s⁻¹ and the kon was determined as 2880 M⁻¹ s⁻¹.
Take B2: the binding result is “no binding”.
For B3, the binding result is “no binding”.

Another assay addresses T2, Soluble heterodimeric CD3 protein (hCD3-epsilon/hCD3-delta) with a human Fc tag (hFcΔAdp/hFc) or a mouse Fc … (human, UniProt P07766 23-126; P04234 22-105).
T2 construct: also called hCD3ε/δ; not shown: Fc tag: human (hFcΔAdp/hFc); which tag was used in Ta
Briefly: SPR Biacore, 25 C, antibody-capture format. How it is done: as §1, §3, §2
As to B4, the affinity, expressed as Kd, was 16.2 nM; the “T½” value worked out at 19 min; the koff came to 0.000611 s⁻¹; the kon was found to be 37700 M⁻¹ s⁻¹.
Consider B5, for which the equilibrium dissociation constant (Kd) is 3.66 nM, the “T½” value is 97 min, the koff turned out to be 0.000119 s⁻¹ and the association rate constant (kon) turned out to be 32400 M⁻¹ s⁻¹.
Consider B6, for which the dissociation constant Kd was 77.6 nM, the “T½” value is 13 min, the koff is 0.000919 s⁻¹ and the on-rate (kon) is 11800 M⁻¹ s⁻¹.
Consider B7, for which the Kd is 21.4 nM, the “T½” value was 23 min, the off-rate constant (koff) came to 0.000508 s⁻¹ and the kon stood at 23700 M⁻¹ s⁻¹.
For B8, the Kd came out at 189 nM, the “T½” value was 9 min, the dissociation rate constant (koff) amounted to 0.00135 s⁻¹ and the association rate constant (kon) stood at 7100 M⁻¹ s⁻¹.
As for B9, the Kd came out at 15.7 nM, the “T½” value stood at 38 min, the koff is 0.000304 s⁻¹ and the on-rate constant (kon) was determined as 19300 M⁻¹ s⁻¹.
On to B10, for which the Kd was 30 nM, the “T½” value worked out at 51 min, the off-rate (koff) is 0.000226 s⁻¹ and the on-rate (kon) came to 7530 M⁻¹ s⁻¹.
As to B11, the “T½” value worked out at 82 min.
On to B12, for which the dissociation constant (Kd) amounted to 10.5 nM, the “T½” value turned out to be 51 min, the koff worked out at 0.000228 s⁻¹ and the kon worked out at 21800 M⁻¹ s⁻¹.
The like results for B13 were, in that order, 80.7 nM, 4 min, 0.003 s⁻¹ and 37200 M⁻¹ s⁻¹.
On to B14, for which binding was put at a Kd of 8.9 nM, the “T½” value came to 61 min, the off-rate (koff) stood at 0.000189 s⁻¹ and the kon was 21300 M⁻¹ s⁻¹.
Consider B15, for which the affinity, expressed as Kd, was 43.9 nM; the “T½” value was determined as 7 min; the koff was found to be 0.00163 s⁻¹; the kon was 37000 M⁻¹ s⁻¹.
As to B16, binding was put at a Kd of 130 nM, the “T½” value was found to be 2 min, the koff was 0.00504 s⁻¹ and the kon turned out to be 38700 M⁻¹ s⁻¹.
As to B17, binding was put at a Kd of 15.9 nM, the “T½” value came out at 33 min, the koff was 0.000347 s⁻¹ and the association rate constant (kon) turned out to be 21800 M⁻¹ s⁻¹.
